Test results from patent US20260008830A1 (FUNDACI CENTRE DE REGULACI GEN MICA, published 2026).

Biological target: T1, IFN-gamma receptor on HEK-Dual cells (Human IFN-γ SEAP/Luciferase Reporter Cells, hkd-ifng)
T1 sequence (P15260 whole entry, looked up): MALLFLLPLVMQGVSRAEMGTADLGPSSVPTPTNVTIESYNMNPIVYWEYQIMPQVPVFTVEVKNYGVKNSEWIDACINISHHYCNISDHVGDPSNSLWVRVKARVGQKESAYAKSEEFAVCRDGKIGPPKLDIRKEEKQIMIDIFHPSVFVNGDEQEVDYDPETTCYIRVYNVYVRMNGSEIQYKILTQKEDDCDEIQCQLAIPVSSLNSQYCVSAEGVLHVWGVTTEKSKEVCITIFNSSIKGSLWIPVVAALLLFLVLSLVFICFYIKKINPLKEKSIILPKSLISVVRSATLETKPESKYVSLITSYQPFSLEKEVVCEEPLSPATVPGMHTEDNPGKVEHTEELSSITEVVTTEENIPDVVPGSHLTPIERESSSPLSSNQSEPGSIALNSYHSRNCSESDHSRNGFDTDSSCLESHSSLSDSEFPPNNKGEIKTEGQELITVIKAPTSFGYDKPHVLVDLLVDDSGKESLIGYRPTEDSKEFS
T1 sequence (P38484 whole entry, looked up): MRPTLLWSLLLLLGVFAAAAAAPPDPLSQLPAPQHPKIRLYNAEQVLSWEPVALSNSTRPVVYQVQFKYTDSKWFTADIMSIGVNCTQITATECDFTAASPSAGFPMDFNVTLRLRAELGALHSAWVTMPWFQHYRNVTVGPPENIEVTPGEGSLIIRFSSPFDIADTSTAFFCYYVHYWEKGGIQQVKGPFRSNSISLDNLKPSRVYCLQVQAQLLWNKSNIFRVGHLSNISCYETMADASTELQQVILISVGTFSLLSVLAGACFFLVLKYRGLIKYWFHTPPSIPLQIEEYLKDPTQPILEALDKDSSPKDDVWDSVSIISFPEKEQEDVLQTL
Experiment: cell-based or functional assay

B1: ORKIFNg-002 (Foldikine-IFNG, single chain dimeric IFN gamma) (ligand)
chain: GSQDPYVKEAENLKKYFNAGHSDVADNGTLFLGILKNWKEESDRKIMQSQIVSFYFKLFKNFKDDQSIQKSVETIKEDMNVKFFNSNKKKRDDFEKLTNYSVTDLNVQRKAIHELIQVMASKPHPGQLWAYVKEAENLKKYFNAGHSDVADNGTLFLGILKNWKEESDRKIMQSQIVSFYFKLFKNFKDDQSIQKSVETIKEDMNVKFFNSNKKKRDDFEKLTNYSVTDLNVQRKAIHELIQVMAELSPAA
  EC50 (HEK Dual cells responding to IFNγ): 0.0328 nM
